This is an account of results in PMC11701221, “WhiA transcription factor provides feedback loop between translation and energy production in a genome-reduced bacterium” (Frontiers in Microbiology, 2024).

In data set [1] the target is T1, Mgal-WhiA (Mycoplasmoides gallisepticum, UniProt A0A0F6CKV5).
T1 construct: E. coli BL21-Gold (DE3); monomer without DNA; Cy5 NHS-ester labelled for ATP MST
T1 sequence (A0A0F6CKV5 1-295): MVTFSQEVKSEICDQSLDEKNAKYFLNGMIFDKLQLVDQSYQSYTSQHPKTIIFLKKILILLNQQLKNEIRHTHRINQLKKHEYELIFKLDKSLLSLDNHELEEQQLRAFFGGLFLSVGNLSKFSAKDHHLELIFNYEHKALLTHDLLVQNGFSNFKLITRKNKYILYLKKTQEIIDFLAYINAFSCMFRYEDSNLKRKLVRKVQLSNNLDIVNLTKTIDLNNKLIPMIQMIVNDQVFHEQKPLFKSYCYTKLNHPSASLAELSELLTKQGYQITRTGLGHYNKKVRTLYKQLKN
In words: microscale thermophoresis, Cy5-labelled protein, Hill fit. Format: binding. On the technique in general: Microscale thermophoresis detects binding through changes in fluorescence in a small temperature gradient.

For data set [2], the target named is T2, Mgal-WhiA (Mycoplasma gallisepticum S6, UniProt A0A0F6CKV5 1-295). In words: MST; 1 mM ATP; multistep curve, conflicts with EMSA; EMSA: 20 mM carbonate pH 9.8, 6% glycerol, 37 C 10 min, gel at 10 C; MST: PBS (10 mM Na phosphate pH 7.4, 140 mM NaCl, 3 mM KCl), 0.05% Tween-20, 50 mM imidazole, 50 nM duplex, 20 C. The following applies: protein: recombinant; label: 5' FAM (EMSA) or HEX (MST) on strand 1; blunt. Background: Mobility shift assays separate free from complexed probe on a gel.

The target of the next data set is Mgal-WhiA Lys-216 (Mycoplasma gallisepticum S6, UniProt A0A0F6CKV5 1-295, K217G). In words: MST; EMSA: 20 mM carbonate pH 9.8, 6% glycerol, 37 C 10 min, gel at 10 C; MST: PBS (10 mM Na phosphate pH 7.4, 140 mM NaCl, 3 mM KCl), 0.05% Tween-20, 50 mM imidazole, 50 nM duplex, 20 C. The conditions noted are these: protein: recombinant; label: 5' FAM (EMSA) or HEX (MST) on strand 1; blunt.

A further data set has as its target Mgal-WhiA Ser-258 (Mycoplasma gallisepticum S6, UniProt A0A0F6CKV5 1-295, S259G). The description is as above. The following applies: protein: recombinant; label: 5' FAM (EMSA) or HEX (MST) on strand 1; blunt.
Data set [3] addresses T2, Mgal-WhiA. The data set can be described thus: EMSA; no ATP; total binding; EMSA: 20 mM carbonate pH 9.8, 6% glycerol, 37 C 10 min, gel at 10 C; MST: PBS (10 mM Na phosphate pH 7.4, 140 mM NaCl, 3 mM KCl), 0.05% Tween-20, 50 mM imidazole, 50 nM duplex, 20 C. The following applies: protein: recombinant, blunt.
The target of data set [4] is T2, Mgal-WhiA. The data set can be described thus: EMSA; no ATP; monomer complex; EMSA: 20 mM carbonate pH 9.8, 6% glycerol, 37 C 10 min, gel at 10 C; MST: PBS (10 mM Na phosphate pH 7.4, 140 mM NaCl, 3 mM KCl), 0.05% Tween-20, 50 mM imidazole, 50 nM duplex, 20 C. The conditions noted are these: protein: recombinant; label: 5' FAM (EMSA) or HEX (MST) on strand 1; blunt.

Another data set deals with Mgal-WhiA Lys-170 (Mycoplasma gallisepticum S6, UniProt A0A0F6CKV5 1-295, K171G). The data set can be described thus: EMSA; dimeric complex favoured; EMSA: 20 mM carbonate pH 9.8, 6% glycerol, 37 C 10 min, gel at 10 C; MST: PBS (10 mM Na phosphate pH 7.4, 140 mM NaCl, 3 mM KCl), 0.05% Tween-20, 50 mM imidazole, 50 nM duplex, 20 C. The following applies: protein: recombinant; label: 5' FAM (EMSA) or HEX (MST) on strand 1; blunt.

The target in data set [5] is T2, Mgal-WhiA. The data set can be described thus: EMSA; 1 mM ATP; monomer complex; EMSA: 20 mM carbonate pH 9.8, 6% glycerol, 37 C 10 min, gel at 10 C; MST: PBS (10 mM Na phosphate pH 7.4, 140 mM NaCl, 3 mM KCl), 0.05% Tween-20, 50 mM imidazole, 50 nM duplex, 20 C. The conditions noted are these: protein: recombinant; label: 5' FAM (EMSA) or HEX (MST) on strand 1; blunt.

In data set [6] the target is T2, Mgal-WhiA. The data set can be described thus: MST; no ATP; Hill n = 1.8 ± 0.2; EMSA: 20 mM carbonate pH 9.8, 6% glycerol, 37 C 10 min, gel at 10 C; MST: PBS (10 mM Na phosphate pH 7.4, 140 mM NaCl, 3 mM KCl), 0.05% Tween-20, 50 mM imidazole, 50 nM duplex, 20 C. The following applies: protein: recombinant; label: 5' FAM (EMSA) or HEX (MST) on strand 1; blunt.
Data set [7] has as its target T2, Mgal-WhiA. In words: MST; 1 mM ATP; n = 1; multistep curve; EMSA: 20 mM carbonate pH 9.8, 6% glycerol, 37 C 10 min, gel at 10 C; MST: PBS (10 mM Na phosphate pH 7.4, 140 mM NaCl, 3 mM KCl), 0.05% Tween-20, 50 mM imidazole, 50 nM duplex, 20 C. The following applies: protein: recombinant; label: 5' FAM (EMSA) or HEX (MST) on strand 1; blunt.
For data set [8], the target named is T2, Mgal-WhiA. In words: EMSA; 1 mM ATP; total binding; unit not printed (nM implied); EMSA: 20 mM carbonate pH 9.8, 6% glycerol, 37 C 10 min, gel at 10 C; MST: PBS (10 mM Na phosphate pH 7.4, 140 mM NaCl, 3 mM KCl), 0.05% Tween-20, 50 mM imidazole, 50 nM duplex, 20 C. The following applies: protein: recombinant, blunt.
Data set [9] deals with T2, Mgal-WhiA. In words: EMSA; monomer complex; printed as with ATP, order probably swapped (no ATP likely); EMSA: 20 mM carbonate pH 9.8, 6% glycerol, 37 C 10 min, gel at 10 C; MST: PBS (10 mM Na phosphate pH 7.4, 140 mM NaCl, 3 mM KCl), 0.05% Tween-20, 50 mM imidazole, 50 nM duplex, 20 C. The conditions noted are these: protein: recombinant; label: 5' FAM on strand 1; blunt.

For data set [10], the target named is T2, Mgal-WhiA. The data set can be described thus: EMSA; monomer complex; printed as without ATP, order probably swapped (1 mM ATP likely); EMSA: 20 mM carbonate pH 9.8, 6% glycerol, 37 C 10 min, gel at 10 C; MST: PBS (10 mM Na phosphate pH 7.4, 140 mM NaCl, 3 mM KCl), 0.05% Tween-20, 50 mM imidazole, 50 nM duplex, 20 C. The following applies: protein: recombinant; label: 5' FAM on strand 1; blunt.

The target of data set [11] is T2, Mgal-WhiA. In words: FRET; with Q3 core duplex; strong quenching; EMSA: 20 mM carbonate pH 9.8, 6% glycerol, 37 C 10 min, gel at 10 C; MST: PBS (10 mM Na phosphate pH 7.4, 140 mM NaCl, 3 mM KCl), 0.05% Tween-20, 50 mM imidazole, 50 nM duplex, 20 C. The conditions noted are these: protein: recombinant; label: 5' 6-FAM on strand 1; blunt.
Setting [12] is: label: 5' FAM (EMSA) or HEX (MST) on strand 1.

Regarding `Nc1ncnc2c1ncn2[C@@H]1O[C@H](COP(=O)(O)OP(=O)(O)OP(=O)(O)O)[C@@H](O)[C@H]1O` [ATP], on Mgal-WhiA [1], the dissociation constant Kd (usually the constant that tells how readily two partners part at equilibrium) is 5000 ± 100 µM.

B1: Negative control (plsC promoter) (dsDNA)
DNA 1: AGCGATAAGTTTTACGAATTAAGTCGTTTATTATATAATA
DNA 2: TATTATATAATAAACGACTTAATTCGTAAAACTTATCGCT
Turning to B1, the Kd with Mgal-WhiA [2] was 0.12 ± 0.05 µM.

B2: rpsJ WT (dsDNA)
DNA 1: AAAGATTGCTGATACACCAAAAACCGTTGTCAAGTATCAG
DNA 2: CTGATACTTGACAACGGTTTTTGGTGTATCAGCAATCTTT
Consider B2, for which the dissociation constant Kd was determined as 1.7 ± 0.1 µM in the data set with Mgal-WhiA Lys-216; 2.6 ± 0.2 µM in the data set with Mgal-WhiA Ser-258; 0.7 ± 0.08 µM with Mgal-WhiA [3] (setting [12]); 0.61 ± 0.1 µM with Mgal-WhiA [4]; 0.24 ± 0.07 µM with Mgal-WhiA [5]; 0.7 ± 0.1 µM with Mgal-WhiA [6]. The equilibrium dissociation constant (Kd) in the data set with Mgal-WhiA [7] stood at 0.088 ± 0.012 µM; with Mgal-WhiA [8] (setting [12]), 0.68 ± 0.09 µM. In addition, in the data set with Mgal-WhiA Lys-170, the binding result is reported as “binds”.

B3: Mut1 (dsDNA)
DNA 1: AAAGATTGCTGATACACCAAAAACCAGACTCAAGTATCAG
DNA 2: CTGATACTTGAGTCTGGTTTTTGGTGTATCAGCAATCTTT
For B3, the Kd in the data set with Mgal-WhiA [3] (label: 5' FAM on strand 1) is 0.75 ± 0.03 µM; with Mgal-WhiA [8] (label: 5' FAM on strand 1), 0.43 ± 0.09 µM; with Mgal-WhiA [9], 0.85 ± 0.13 µM; with Mgal-WhiA [10], 0.29 ± 0.18 µM.

B4: WhiA-F1 (aux half-site) (dsDNA)
DNA 1: AACCGTTGTCAAGTATC
DNA 2: GATACTTGACAACGGTT
As for B4, the binding result in the data set with Mgal-WhiA [11] is on record as “binds”.
